# Measurements as given in article PMC4335299 (Genes & Development, 2015).
# Where two headings read alike, the source gives them in different places.
# T1: Bacillus subtilis glutamine synthetase, wild type, full length (Bacillus subtilis, UniProt P12425 1-444)
# T1 sequence (looked up): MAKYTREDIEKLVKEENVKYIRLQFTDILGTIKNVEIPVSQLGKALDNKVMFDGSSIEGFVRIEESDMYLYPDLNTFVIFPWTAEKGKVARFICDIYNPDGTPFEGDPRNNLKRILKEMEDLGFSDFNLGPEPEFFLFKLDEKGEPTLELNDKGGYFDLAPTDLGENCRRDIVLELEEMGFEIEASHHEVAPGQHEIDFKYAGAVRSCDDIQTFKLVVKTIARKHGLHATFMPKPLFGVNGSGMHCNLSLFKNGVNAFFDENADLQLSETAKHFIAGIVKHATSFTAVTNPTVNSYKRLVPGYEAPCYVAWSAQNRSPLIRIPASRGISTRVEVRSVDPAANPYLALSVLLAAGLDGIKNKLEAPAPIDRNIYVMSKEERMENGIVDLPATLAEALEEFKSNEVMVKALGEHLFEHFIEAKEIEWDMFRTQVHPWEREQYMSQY
# T2: TnrA;GlnK (Bacillus subtilis;Bacillus subtilis, UniProt Q45666;Q07428 1-110;1-116, |)
# T2 sequence 1: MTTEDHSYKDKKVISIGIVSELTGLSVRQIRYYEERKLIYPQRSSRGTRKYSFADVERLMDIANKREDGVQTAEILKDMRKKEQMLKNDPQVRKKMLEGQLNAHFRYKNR
# T2 sequence 2: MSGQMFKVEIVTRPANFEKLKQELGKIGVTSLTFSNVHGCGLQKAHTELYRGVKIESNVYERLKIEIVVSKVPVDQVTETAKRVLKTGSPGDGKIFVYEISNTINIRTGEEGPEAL
# T3: GlnR FL (Bacillus subtilis, UniProt P37582 1-135)
# T3 sequence: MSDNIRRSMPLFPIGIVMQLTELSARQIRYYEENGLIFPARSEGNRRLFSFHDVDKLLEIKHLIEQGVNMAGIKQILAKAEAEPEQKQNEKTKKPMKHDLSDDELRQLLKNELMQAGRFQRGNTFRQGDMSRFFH
# T4: GlnRΔ18 (Bacillus subtilis, UniProt P37582 1-117, del118-135)
# T4 sequence: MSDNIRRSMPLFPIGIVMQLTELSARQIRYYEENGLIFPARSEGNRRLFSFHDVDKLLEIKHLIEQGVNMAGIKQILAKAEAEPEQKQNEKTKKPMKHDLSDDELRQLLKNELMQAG
# T5: TnrA (Bacillus subtilis, UniProt Q45666 1-110)
# T5 sequence: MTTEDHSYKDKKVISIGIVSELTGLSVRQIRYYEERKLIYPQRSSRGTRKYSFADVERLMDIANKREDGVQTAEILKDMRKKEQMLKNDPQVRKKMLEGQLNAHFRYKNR
# T6: TnrA (Bacillus megaterium, UniProt G2RUZ1 1-108)
# T6 sequence: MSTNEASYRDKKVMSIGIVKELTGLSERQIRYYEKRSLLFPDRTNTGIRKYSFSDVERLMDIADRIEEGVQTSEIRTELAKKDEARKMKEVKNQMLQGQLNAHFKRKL
# T7: GS(E424K) (Bacillus subtilis, UniProt P12425 1-444, E424K)
# T7 sequence (looked up): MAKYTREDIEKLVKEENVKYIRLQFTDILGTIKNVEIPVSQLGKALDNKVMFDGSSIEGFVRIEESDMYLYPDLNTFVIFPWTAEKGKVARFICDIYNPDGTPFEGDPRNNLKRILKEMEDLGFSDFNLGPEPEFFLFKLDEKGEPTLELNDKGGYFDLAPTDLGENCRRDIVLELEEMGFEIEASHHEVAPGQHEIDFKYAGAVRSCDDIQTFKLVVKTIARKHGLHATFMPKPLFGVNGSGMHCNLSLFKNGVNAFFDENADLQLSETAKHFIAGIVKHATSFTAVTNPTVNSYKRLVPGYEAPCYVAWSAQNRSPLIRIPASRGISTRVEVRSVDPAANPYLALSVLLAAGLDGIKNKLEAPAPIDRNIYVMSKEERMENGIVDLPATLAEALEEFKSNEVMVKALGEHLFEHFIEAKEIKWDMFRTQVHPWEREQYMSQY
# Key:
# [1] = biological target: Bacillus megaterium TnrA, full length (Bacillus megaterium); experiment: crystal structure
# [2] = biological target: Bacillus subtilis TnrA, full length (Bacillus subtilis) (UniProt Q45666); experiment: ITC
# [3] = biological target: Bacillus subtilis GlnK, wild type (Bacillus subtilis); experiment: SAXS
# [4] = biological target: Bacillus subtilis GlnK, wild type (Bacillus subtilis); experiment: crystal structure
# [5] = biological target: T1, Bacillus subtilis glutamine synthetase, …; experiment: crystal structure
# TnrA;GlnK = biological target: T2, TnrA;GlnK; experiment: SAXS
# [6] = biological target: T1, Bacillus subtilis glutamine synthetase, …; experiment: crystal structure; remark: listed apart in the source
# GlnR FL = biological target: T3, GlnR FL; experiment: fluorescence polarization
# GlnRΔ18 = biological target: T4, GlnRΔ18; experiment: fluorescence polarization
# TnrA [7] = biological target: T5, TnrA; experiment: fluorescence polarization
# TnrA [8] = biological target: T6, TnrA; experiment: X-ray crystallography
# GS(E424K) = biological target: T7, GS(E424K); experiment: fluorescence polarisation
# crystal structure = biological target: the molecule itself; experiment: crystal structure
molecule,measurement,setting,value
"Bacillus megaterium TnrA, full length (natural protein)",stoichiometry N,[1],2
"Bacillus subtilis GlnK, wild type (natural protein)",stoichiometry N (GlnK subunit per TnrA subunit),[2],0.5
same,stoichiometry N,[3],3
same,stoichiometry N,[4],3
RFQRGNTFRQGDMSRFFH [GlnR C-terminal peptide],binding result,[5],binds
17mer SAXS (dsDNA) DNA 1: TGTCAGATAATCTGACA DNA 2: TGTCAGATTATCTGACA,binding result,TnrA;GlnK,binds
"EILKDMRKKEQMLKNDPQVRKKMLEGQLNAHFRYKNR (domain or fragment, Bacillus subtilis, UniProt Q45666 74-110, looked up) [TnrA(74–110)]",binding result,[6],binds
21mer FP (dsDNA) DNA 1: CGTGTAAGATTTCCTGACACG DNA 2: CGTGTCAGGAAATCTTACACG,binding signal,GlnR FL,> 10 fold weaker than GlnRΔ18
same,Kd,GlnRΔ18,6 ± 0.9 nM
same,Kd,TnrA [7],11.6 ± 1.8 nM
17mer FP (dsDNA) DNA 1: TGTAAGATTTCCTGACA DNA 2: TGTCAGGAAATCTTACA,Kd,GlnRΔ18,8.1 ± 0.3 nM
same,Kd,TnrA [7],15.7 ± 0.9 nM
21mer site (crystal) (dsDNA) DNA 1: CGTGTAAGATTTCCTGACACG DNA 2: CGTGTCAGGAAATCTTACACG,binding result,TnrA [8],binds
"TnrA(K108E) (natural protein, Bacillus subtilis, UniProt Q45666 1-110, looked up) MTTEDHSYKDKKVISIGIVSELTGLSVRQIRYYEERKLIYPQRSSRGTRKYSFADVERLMDIANKREDGVQTAEILKDMRKKEQMLKNDPQVRKKMLEGQLNAHFRYENR",binding result,GS(E424K),binds
"GlnRΔ18 (domain or fragment, Bacillus subtilis, UniProt P37582 1-117, looked up) MSDNIRRSMPLFPIGIVMQLTELSARQIRYYEENGLIFPARSEGNRRLFSFHDVDKLLEIKHLIEQGVNMAGIKQILAKAEAEPEQKQNEKTKKPMKHDLSDDELRQLLKNELMQAG",stoichiometry N,crystal structure,2
